Measured values reported in patent EP4640225A1 (dated 2025).

Columns and labels:
Experiment in all cases: activation reporter or marker
[1] = target: T1, KK-LC-1 peptide on HLA-C*07:02 (human)
T1 peptide: RFQRNTGEM

[2] = target: T2, KK-LC-1 peptide on HLA-A*26:03 (human)
T2 peptide: RFQRNTGEM

[3] = target: T3, KK-LC-1 peptide on HLA-C*14:02 (human)
T3 peptide: RFQRNTGEM

[4] = target: T4, KK-LC-1 peptide on HLA-B*15:01 (human)
T4 peptide: RFQRNTGEM

[5] = target: T5, KK-LC-1 peptide on HLA-B*51:01 (human)
T5 peptide: RFQRNTGEM

[6] = target: T6, KK-LC-1 peptide on HLA-A*24:02 (human)
T6 peptide: RFQRNTGEM

[7] = target: T7, KK-LC-1 peptide on HLA-B*15:01 (human)
T7 peptide: RQKRILVNL

B1: pt. 2-ex08TCR (TCR, V domains shown)
Valpha: GESVGLHLPTLSVQEGDNSIINCAYSNSASDYFIWYKQESGKGPQFIIDIRSNMDKRQGQRVTVLLNKTVKHLSLQIAATQPGDSAVYFCAEIPWGGSQGNLIFGKGTKLSVKP
Vbeta: DTGVSQDPRHKITKRGQNVTFRCDPISEHNRLYWYRQTLGQGPEFLTYFQNEAQLEKSRLLSDRFSAERPKGSFSTLEIQRTEQGDSAMYLCASSRDDREYFGEGSWLTVV
- binding result [1]: no recognition
- binding result [2]: no recognition
- binding result [3]: recognises
- binding result [4]: no recognition
- binding result [5]: no recognition
- binding result [6]: no recognition

B2: pt. 2-ex09TCR (TCR, V domains shown)
Valpha: GQNIDQPTEMTATEGAIVQINCTYQTSGFNGLFWYQQHAGEAPTFLSYNVLDGLEEKGRFSSFLSRSKGYSYLLLKELQMKDSASYLCAVDDGGATNKLIFGTGTLLAVQP
Vbeta: ETGVTQSPTHLIKTRGQQVTLRCSSQSGHNTVSWYQQALGQGPQFIFQYYREEENGRGNFPPRFSGLQFPNYSSELNVNALELDDSALYLCASSTRDRGTYEQYFGPGTRLTVT
- binding result [7]: recognises

B3: pt. 1-ex15TCR (TCR, V domains shown)
Valpha: AQKVTQAQTEISVVEKEDVTLDCVYETRDTTYYLFWYKQPPSGELVFLIRRNSFDEQNEISGRYSWNFQKSTSSFNFTITASQVVDSAVYFCALSDPEESGYALNFGKGTSLLVTP
Vbeta: DTGVSQDPRHKITKRGQNVTFRCDPISEHNRLYWYRQTLGQGPEFLTYFQNEAQLEKSRLLSDRFSAERPKGSFSTLEIQRTEQGDSAMYLCASSSNEKLFFGSGTQLSVL
- binding result [7]: recognises

B4: pt. 1-ex08TCR (TCR, V domains shown)
Valpha: KDQVFQPSTVASSEGAVVEIFCNHSVSNAYNFFWYLHFPGCAPRLLVKGSKPSQQGRYNMTYERFSSSLLILQVREADAAVYYCAVEDVPVNDYKLSFGAGTTVTVRA
Vbeta: DAGITQSPRHKVTETGTPVTLRCHQTENHRYMYWYRQDPGHGLRLIHYSYGVKDTDKGEVSDGYSVSRSKTEDFLLTLESATSSQTSVYFCAISAEGTYEQYFGPGTRLTVT
- binding result [7]: recognises
